According to paper PMC7954794, “Protein context shapes the specificity of SH3 domain-mediated interactions in vivo” (Nature Communications, 2021):

Tested on: growth of yeast strains under 51 stress conditions
Experiment: Growth assays in 51 stress conditions (Fig. 1E-F, S2D, S5B)
Type: cell-based, Saccharomyces cerevisiae
Set-up: key to Growth (Fig. S2D) / growth of ABP1 SH3-swapped strains in stress condition: log2 colony size, average of median per strain (growth score)
Details: FigS2D
In short: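 Colony sizes at 74 h on 51 stress media (37 °C) were log2 transformed, corrected for plate effects, and averaged across two plates as per-plate medians (growth score). Strains arrayed in 12 replicates with WT border, grown first on YPD for two days at 30 °C.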

B1: SDC25 (protein, UniProt P0CF34 1-1048, looked up)
Putative truncated guanine …: MPITSSPDLFYLNDCDVVYWYDLTRLVCHYVNLTERDLLANEREKFLTSLDLLTAQITYVYMLFRNLRLVEDSFKKTLKKLIYTLSRFSINANIWFHSTLFEEREAIASQKDPERRSPLLQSILGTFQKFHFLLRLLHFLSNPNELTILPQLTPRFFKDSFNTISWNNPFLRKRLNQHMSHDLPRQMIKAVAGASGIVAENIDEIPASKQGTSCSSETSHHSPSAPFQRRRRGTIFSNVSGSSDESDTIWSKRKKPYPLNEETLSLVRARKKQLDGKLKQMIKSANEYLSNTANFSKMLNFEMNFKTYEEVSGTIPIIDILENLDLTIFLNLRELGDENRVFDEDVAIDDEDEEFLKHSLSSLSYILSDYFNMKQYFHDVVVKFIIVAQHLTLEDPFVFSPMQNDLPTGYYEPMKPSSLNLDNAKDKKNGSQNTDIQEEEDEYEPDPDSLILFHNLINQDSDFNDLKFFNLAHVFKKSCDDYFDVLKLAIEFVNQLILERENLLNYAARMMKNNITELLLRGEEGYGSYDGGETAEKSDTNAVYADSDTKDNDEWRDSQVKLPRYLQREYDSELIWGSNNRIKGGSKHALISYLTDNEKKDLFFDITFLITFRSIFTTTEFLSYLISQYNLDPPEDLCFEEYNEWVTKKLIPVKCRVVEIMTTFFKQYWFLGYDEPDLATLNLDYFAQVAIKENITGSVELLKEVNQKFKHGNIQEATAPMKTLDQQICQDHYSGTLYSTTESILAVDPVLFATQLTILEHEIYCEITIFDCLQKIWKNKYTKSYGASPGLNEFISFANKLTNFISYSVVKEADKSKRAKLLSHFIFIAEYCRKFNNFSSMTAIISALYSSPIYRLEKTWQAVIPQTRDLLQSLNKLMDPKKNFINYRNELKSLHSAPCVPFFGVYLSDLTFTDSGNPDYLVLEHGLKGVHDEKKYINFNKRSRLVDILQEIIYFKKTHYDFTKDRTVIECISNSLENIPHIEKQYQLSLIIEPKPRKKVVPNSNSNNKSQEKSRDDQTDEGKTSTKKDRFPKFQLHKTKKKAPKVSK
- growth of ABP1 SH3-swapped strains in stress condition (Bathophenanthroline.0.1uM): 10.8364
- growth of ABP1 SH3-swapped strains in stress condition (Bathophenanthroline.10uM): 10.6904
- growth of ABP1 SH3-swapped strains in stress condition (Bathophenanthroline.1uM): 10.7994
- growth of ABP1 SH3-swapped strains in stress condition (CaCl2.100mM): 10.8248
- growth of ABP1 SH3-swapped strains in stress condition (CaCl2.250mM): 10.7599
- growth of ABP1 SH3-swapped strains in stress condition (CaCl2.500mM): 10.2626
- growth of ABP1 SH3-swapped strains in stress condition (Caffein.10mM): 10.0769
- growth of ABP1 SH3-swapped strains in stress condition (Caffein.2mM): 11.0485
- growth of ABP1 SH3-swapped strains in stress condition (CdCl2.100uM): 9.5
- growth of ABP1 SH3-swapped strains in stress condition (CdCl2.10uM): 10.8639
- growth of ABP1 SH3-swapped strains in stress condition (CdCl2.50uM): 9.958
- growth of ABP1 SH3-swapped strains in stress condition (CuSO4.1mM): 10.5113
- growth of ABP1 SH3-swapped strains in stress condition (CuSO4.5mM): 8.27
- growth of ABP1 SH3-swapped strains in stress condition (Cycloheximide.0.05.uM): 11.0819
- growth of ABP1 SH3-swapped strains in stress condition (Cycloheximide.0.2.uM): 10.7047
- growth of ABP1 SH3-swapped strains in stress condition (Cycloheximide.0.5.uM): 10.178
- growth of ABP1 SH3-swapped strains in stress condition (DMSO.2.): 11.0639
- growth of ABP1 SH3-swapped strains in stress condition (DMSO.6.): 9.8939
- growth of ABP1 SH3-swapped strains in stress condition (DMSO.8.): 9.304
- growth of ABP1 SH3-swapped strains in stress condition (Ethanol.2.): 10.7995
- growth of ABP1 SH3-swapped strains in stress condition (Ethanol.6.): 10.2862
- growth of ABP1 SH3-swapped strains in stress condition (Ethanol.8.): 10.1201
- growth of ABP1 SH3-swapped strains in stress condition (Galactose.2.): 10.8278
- growth of ABP1 SH3-swapped strains in stress condition (Glycerol.2.): 9.649
- growth of ABP1 SH3-swapped strains in stress condition (Hydroxyurea.25mM): 10.7663
- growth of ABP1 SH3-swapped strains in stress condition (Hygromycin.190uM): 10.9932
- growth of ABP1 SH3-swapped strains in stress condition (Hygromycin.19uM): 11.0621
- growth of ABP1 SH3-swapped strains in stress condition (Hygromycin.95uM): 11.0036
- growth of ABP1 SH3-swapped strains in stress condition (MMS.0.004.): 10.9622
- growth of ABP1 SH3-swapped strains in stress condition (MMS.0.02.): 10.7008
- growth of ABP1 SH3-swapped strains in stress condition (MMS.0.04.): 9.99
- growth of ABP1 SH3-swapped strains in stress condition (Menadione.100uM): 10.5981
- growth of ABP1 SH3-swapped strains in stress condition (Menadione.200uM): 10.4339
- growth of ABP1 SH3-swapped strains in stress condition (Menadione.50uM): 10.8229
- growth of ABP1 SH3-swapped strains in stress condition (NaCl.0.25M): 10.7913
- growth of ABP1 SH3-swapped strains in stress condition (NaCl.1M): 9.689
- growth of ABP1 SH3-swapped strains in stress condition (Nitroquinoline.10uM): 10.6447
- growth of ABP1 SH3-swapped strains in stress condition (Nitroquinoline.50uM): 10.5332
- growth of ABP1 SH3-swapped strains in stress condition (Nystatin.0.01uM): 11.0104
- growth of ABP1 SH3-swapped strains in stress condition (Nystatin.0.1uM): 10.9861
- growth of ABP1 SH3-swapped strains in stress condition (Raffinose.2.): 11.0244
- growth of ABP1 SH3-swapped strains in stress condition (Rapamycin.10nM): 9.868
- growth of ABP1 SH3-swapped strains in stress condition (Rapamycin.50nM): 9.322
- growth of ABP1 SH3-swapped strains in stress condition (SC.pH3): 10.4118
- growth of ABP1 SH3-swapped strains in stress condition (SC.pH6): 11.0555
- growth of ABP1 SH3-swapped strains in stress condition (SDS.0.01.): 10.9877
- growth of ABP1 SH3-swapped strains in stress condition (SDS.0.02.): 11.0022
- growth of ABP1 SH3-swapped strains in stress condition (SDS.0.05.): 10.9318
- growth of ABP1 SH3-swapped strains in stress condition (Sorbitol.10mM): 10.9817
- growth of ABP1 SH3-swapped strains in stress condition (Sorbitol.1mM): 11.0284
- growth of ABP1 SH3-swapped strains in stress condition (Sorbitol.5mM): 10.9056

B2: PIN3 (protein, UniProt Q06449 2-215, looked up)
[PSI+] inducibility protein 3: SASLINRSLTNIRTELDFLKGSNVISNDVYDQINKSLPAKWDPANAPRNASPASLEYVEALYQFDPQQDGDLGLKPGDKVQLLEKLSPEWYKGSCNGRTGIFPANYVKPAFSGSNGPSNLPPPPQYKAQELQQIPTQNSAASSYQQQPFPPPSTNYYQQPQQQPQQAPPPQQQQQQQQHQSSHSHLKSFGSKLGNAAIFGAGASIGSDIVNNIF
- growth of ABP1 SH3-swapped strains in stress condition (Bathophenanthroline.0.1uM): 10.8166
- growth of ABP1 SH3-swapped strains in stress condition (Bathophenanthroline.10uM): 10.6603
- growth of ABP1 SH3-swapped strains in stress condition (Bathophenanthroline.1uM): 10.7601
- growth of ABP1 SH3-swapped strains in stress condition (CaCl2.100mM): 10.8086
- growth of ABP1 SH3-swapped strains in stress condition (CaCl2.250mM): 10.7002
- growth of ABP1 SH3-swapped strains in stress condition (CaCl2.500mM): 10.193
- growth of ABP1 SH3-swapped strains in stress condition (Caffein.10mM): 10.1104
- growth of ABP1 SH3-swapped strains in stress condition (Caffein.2mM): 10.9501
- growth of ABP1 SH3-swapped strains in stress condition (CdCl2.100uM): 9.413
- growth of ABP1 SH3-swapped strains in stress condition (CdCl2.10uM): 10.8515
- growth of ABP1 SH3-swapped strains in stress condition (CdCl2.50uM): 9.821
- growth of ABP1 SH3-swapped strains in stress condition (CuSO4.1mM): 10.439
- growth of ABP1 SH3-swapped strains in stress condition (CuSO4.5mM): 7.85
- growth of ABP1 SH3-swapped strains in stress condition (Cycloheximide.0.05.uM): 11.0946
- growth of ABP1 SH3-swapped strains in stress condition (Cycloheximide.0.2.uM): 10.6691
- growth of ABP1 SH3-swapped strains in stress condition (Cycloheximide.0.5.uM): 10.0558
- growth of ABP1 SH3-swapped strains in stress condition (DMSO.2.): 10.999
- growth of ABP1 SH3-swapped strains in stress condition (DMSO.6.): 9.863
- growth of ABP1 SH3-swapped strains in stress condition (DMSO.8.): 9.083
- growth of ABP1 SH3-swapped strains in stress condition (Ethanol.2.): 10.7656
- growth of ABP1 SH3-swapped strains in stress condition (Ethanol.6.): 10.3279
- growth of ABP1 SH3-swapped strains in stress condition (Ethanol.8.): 10.22
- growth of ABP1 SH3-swapped strains in stress condition (Galactose.2.): 10.8019
- growth of ABP1 SH3-swapped strains in stress condition (Glycerol.2.): 9.823
- growth of ABP1 SH3-swapped strains in stress condition (Hydroxyurea.25mM): 10.7882
- growth of ABP1 SH3-swapped strains in stress condition (Hygromycin.190uM): 10.9875
- growth of ABP1 SH3-swapped strains in stress condition (Hygromycin.19uM): 10.9831
- growth of ABP1 SH3-swapped strains in stress condition (Hygromycin.95uM): 10.9742
- growth of ABP1 SH3-swapped strains in stress condition (MMS.0.004.): 10.989
- growth of ABP1 SH3-swapped strains in stress condition (MMS.0.02.): 10.7926
- growth of ABP1 SH3-swapped strains in stress condition (MMS.0.04.): 10.0504
- growth of ABP1 SH3-swapped strains in stress condition (Menadione.100uM): 10.5651
- growth of ABP1 SH3-swapped strains in stress condition (Menadione.200uM): 10.4599
- growth of ABP1 SH3-swapped strains in stress condition (Menadione.50uM): 10.8547
- growth of ABP1 SH3-swapped strains in stress condition (NaCl.0.25M): 10.7663
- growth of ABP1 SH3-swapped strains in stress condition (NaCl.1M): 9.587
- growth of ABP1 SH3-swapped strains in stress condition (Nitroquinoline.10uM): 10.765
- growth of ABP1 SH3-swapped strains in stress condition (Nitroquinoline.50uM): 10.634
- growth of ABP1 SH3-swapped strains in stress condition (Nystatin.0.01uM): 10.9089
- growth of ABP1 SH3-swapped strains in stress condition (Nystatin.0.1uM): 10.9679
- growth of ABP1 SH3-swapped strains in stress condition (Raffinose.2.): 10.9939
- growth of ABP1 SH3-swapped strains in stress condition (Rapamycin.10nM): 9.886
- growth of ABP1 SH3-swapped strains in stress condition (Rapamycin.50nM): 9.402
- growth of ABP1 SH3-swapped strains in stress condition (SC.pH3): 10.4061
- growth of ABP1 SH3-swapped strains in stress condition (SC.pH6): 11.0349
- growth of ABP1 SH3-swapped strains in stress condition (SDS.0.01.): 10.9539
- growth of ABP1 SH3-swapped strains in stress condition (SDS.0.02.): 10.9685
- growth of ABP1 SH3-swapped strains in stress condition (SDS.0.05.): 10.8165
- growth of ABP1 SH3-swapped strains in stress condition (Sorbitol.10mM): 10.9792
- growth of ABP1 SH3-swapped strains in stress condition (Sorbitol.1mM): 10.9728
- growth of ABP1 SH3-swapped strains in stress condition (Sorbitol.5mM): 10.9245
